Data reported in publication doi:10.1101/509869 (bioRxiv, 2019).

Target: the molecule itself
Assay: SEC-MALS

Protein | stoichiometry N
TEX12core (human TEX12, amino acids 49-123) (domain or fragment, UniProt Q9BXU0 49-123, looked up) KDEALEKDLNDVSKEINLMLSTYAKLLSERAAVDASYIDEIDELFKEANAIENFLIQKREFLRQRFTVIANTLHR | 2
TEX12 (human, amino acids 1-123, full length) (natural protein, UniProt Q9BXU0 1-123, looked up) MMANHLVKPDNRNCKRPRELESPVPDSPQLSSLGKSDSSFSEISGLFYKDEALEKDLNDVSKEINLMLSTYAKLLSERAAVDASYIDEIDELFKEANAIENFLIQKREFLRQRFTVIANTLHR | 2
